For one substance, stoichiometry N (VorinI per Vorin-cat) results are on record in publication PMC7764402.

This test addresses Vorin-cat (C-terminal catalytic mART domain of Vorin), wild type (Erwinia amylovora ATCC BAA-2158). The experiment in a line: SEC; IMAC-purified Vorin-cat/VorinI (5 mg) on HiLoad 16/60 Superdex-200; fractions analysed by SDS-PAGE with Coomassie stain; dialysed against 50 mM Tris pH 7.5, 250 mM NaCl, 10% glycerol before the run. (Size exclusion chromatography separates by hydrodynamic size, large species first.)

“VorinI (Vorin Immunity protein) (natural protein)” had a stoichiometry N (VorinI per Vorin-cat) of 1.
